Here are results for one protein from paper PMC9703647 (Nature, 2022).

The data set deals with the molecule itself. In words: cross-linking.

B1: GSDMA_(1–246) (domain or fragment, human, UniProt Q96QA5 1-246, looked up)
chain: MTMFENVTRALARQLNPRGDLTPLDSLIDFKRFHPFCLVLRKRKSTLFWGARYVRTDYTLLDVLEPGSSPSDPTDTGNFGFKNMLDTRVEGDVDVPKTVKVKGTAGLSQNSTLEVQTLSVAPKALETVQERKLAADHPFLKEMQDQGENLYVVMEVVETVQEVTLERAGKAEACFSLPFFAPLGLQGSINHKEAVTIPKGCVLAFRVRQLMVKGKDEWDIPHICNDNMQTFPPGEKSGEEKVILIQ
On to B1, for which the binding result is “binds”.
